Assay results from the supplement of paper PMC12042874.
± gives the uncertainty stated by the source.

Test: amyloid nucleation score (Sup35N fusion, yeast selection) (log enrichment); library NNK1; higher = more nucleation; inactive = no reads after selection
Outline: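 In psi-negative yeast, Sup35N fusions carrying peptides of 20 random codons were induced with 100 μM copper sulfate for 24 hours. The cells then grew 7 days at 30°C on medium lacking adenine and uracil, and plasmid inserts from input and output were Illumina-sequenced, excluding sequences with under 100 input reads. Nucleation score is the DiMSum log enrichment of output over input reads, centred on the mode score of non-aggregating sequences.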

| Substance | amyloid nucleation score |
| --- | --- |
| WHYNMLYCLLRRSRLCWNIV | -0.403 ± 0.48 |
| WIAFERPAYVDSWHLTRNRP | 0.109 ± 0.24 |
| WILVGMGLGFHFFW | 0.86 ± 1.1 |
| WISFYSPCMGRAISLSVVDV | 0.68 ± 0.54 |
| WLAHRNWLC | 0.103 ± 0.7 |
| WLKVGGEFSWSVQSVY | 0.071 ± 0.55 |
| WLKVRNTR | -0.178 ± 0.49 |
| WLLVNMDDYLAGYCITHFRN | -0.359 ± 0.58 |
| WLTRFRRGAACRDLLWRGER | -0.096 ± 1.4 |
| WLTTGFLFVKLGGHKESSVQ | 0.015 ± 0.33 |
| WMAFWGWVLYYFSFHFTFNV | 0.079 ± 0.48 |
| WMFMNLVGVMFDGHGPGGSA | 1.66 ± 0.28 |
| WNRYWNLFYRGTLDSTAIGS | -1.76 ± 2.4 |
| WNSSYDGRFIAYAMQWSNKE | -0.118 ± 0.48 |
| WPLLPVELNVSTRHENGLLM | 1.4 ± 0.34 |
| WPLRESCGICERRAWCRSAY | 0.923 ± 0.63 |
| WPWNEPY | -0.251 ± 0.48 |
| WQLTGISIWARFMFYVWQGK | -1.34 ± 0.92 |
| WRARLWDLNPWHVAREMIAG | 0.096 ± 0.93 |
| WRGCVNFCEKKPGVGVSSV | 0.076 ± 0.55 |
| WRTSEFSHSLVKYVLSRVLT | 1.31 ± 0.56 |
| WSARHKHNTKCYFVRGQ | -0.081 ± 0.34 |
| WSFVYMENVIARYEVSVG | 0.296 ± 0.25 |
| WSGIIELC | 1.74 ± 0.78 |
| WSIKFQS | -0.123 ± 0.49 |

| Substance | amyloid nucleation score |
| --- | --- |
| WSRCSFFGHRYIKSSLLIWG | -0.139 ± 0.44 |
| WSSKLFCIGLDLCVVDDMCF | 2.44 ± 0.12 |
| WSSTRPCFLFQLRMAMLLCS | 0.154 ± 0.59 |
| WSYAIKAISSMGAVTDASRM | -0.136 ± 0.31 |
| WTAGWL | -0.065 ± 0.44 |
| WTRLLD | inactive |
| WTRSM | 0.018 ± 0.41 |
| WVDGESAPDDERRQWICDIG | -0.948 ± 1.3 |
| WVGFRQCLSASMCAPDPQTD | 0.748 ± 0.8 |
| WVILMMLCILRGRELSVAYW | -0.446 ± 0.99 |
| WVLAVRTSNLCRRGMLYKL | -0.662 ± 0.45 |
| WVLGGEFPYKRGGIAASLVL | -0.327 ± 0.84 |
| WVNVTRVNGRDEGAPSIRNK | -0.787 ± 0.4 |
| WVSSAAGAAGPVIYWDVALY | -0.612 ± 0.39 |
| WWLRVVS | 0.041 ± 0.78 |
| WWSYQF | 0.725 ± 0.39 |
| WYHSYCVVHSFWYATSPLNS | -0.259 ± 0.33 |
| WYPAANLRLVALIKGVSAVT | -2.23 ± 2.4 |
| YADNSSTLMSDILFTIYRIG | 1.06 ± 0.095 |
| YAFARCLTHINVVALIVRMC | -1.18 ± 0.64 |
| YAHGGWDLVRRNS | 0.232 ± 0.86 |
| YALFADACSKGALDKVFSWV | 0.745 ± 1.2 |
| YANTTWSLTLTTVQHRNVAD | 3.35 ± 0.16 |
| YARIAKRTFLVYSQNEARFE | 0.843 ± 0.98 |
| YASTSMWVP | -0.401 ± 0.35 |

| Substance | amyloid nucleation score |
| --- | --- |
| YATGDCDVLMYRLGMNKKSS | 0.488 ± 0.45 |
| YAVCRLANSSGSRHVFLCHT | 0.527 ± 0.31 |
| YCCYAVRACFN | 7.509 ± 0.057 |
| YCGGY | 2.9 ± 0.087 |
| YCGSYHLGSFGIYSTVEIYC | 1.37 ± 0.9 |
| YCNGNRKVVEVDFDWILGGG | -0.33 ± 1.1 |
| YDEGHS | -0.778 ± 1.2 |
| YDFLPRVNNPLSRNLRHRAL | -0.071 ± 0.56 |
| YDIRL | -0.376 ± 0.65 |
| YDNRSALDWCLGEVMFAST | -0.993 ± 0.35 |
| YDRVLNLSDSWCTNAAPWWG | 0.394 ± 0.43 |
| YDYGVESLRLVVLCNDLWFL | -0.346 ± 0.4 |
| YDYHRNLSNHFLCFTLNWLT | 5.23 ± 0.072 |
| YEDLSNDYNSNRWIVYALSK | -0.189 ± 0.24 |
| YEFLIWVCPTALRRVVSSVV | 0.189 ± 0.74 |
| YEKMTRFNVGKCHMVHFSLP | -0.376 ± 1.4 |
| YELKQSL | -0.301 ± 0.73 |
| YELKSDNLFVRLF | -0.706 ± 0.46 |
| YFCPLKCVMPENDCPFPMVM | 0.416 ± 0.25 |
| YFCSSGWANVMLLLSVQTNR | 0.173 ± 0.35 |
| YFFVLEFIVCIVMTITSLSC | -0.988 ± 0.48 |
| YFGMSY | -1.38 ± 0.66 |
| YFKLIVLVGLNAREWRAAMV | -0.221 ± 0.4 |
| YFMTHRGLCRCISLSYNFKI | -0.957 ± 0.98 |
| YFQFRDGIFIFYVTF | 0.415 ± 0.64 |

| Substance | amyloid nucleation score |
| --- | --- |
| YFRIDAKTWFVSFPVALLPV | -0.557 ± 0.29 |
| YFYDILGCDWKALSGRLIDT | -0.603 ± 0.25 |
| YGEPYV | 0.829 ± 0.66 |
| YGGLGYSLIGCYADLDGVIL | 1.47 ± 0.39 |
| YGINAVFLLIDLDERITDYL | 0.105 ± 0.29 |
| YGKSYVIDGVVWGRQDSWES | -0.748 ± 1.6 |
| YGLMVVVKVS | 6.666 ± 0.043 |
| YGNYGCLGRWNSLHTCSQIC | -0.913 ± 0.67 |
| YHGRRVPRDVTNQRTMAQCD | 3.66 ± 0.087 |
| YHIGTVVIPWLKVNRIYRGI | 4.96 ± 0.081 |
| YHNGDYCCVQFTTGSWVVRW | 0.391 ± 0.28 |
| YHNLVLQSICDCSSLADLGW | 6.66 ± 0.059 |
| YHRGIYLFSRSC | -0.906 ± 0.88 |
| YHTNTGDDPSCPRPSTSYSG | 1.98 ± 0.51 |
| YHVRVKYFPWNGTNVTVLDS | -0.73 ± 0.32 |
| YIFSHDKGMRR | 2.49 ± 0.25 |
| YIHGGVMCKDPAPFSYFASI | -0.114 ± 0.59 |
| YILPEAEHSKGC | 0.803 ± 0.63 |
| YILSISYYFPRGMVDIVMFM | 0.5 ± 0.48 |
| YINLDHCRMSSSTA | 0.85 ± 0.65 |
| YINLVLGFSYVFLLGLANRM | -0.773 ± 0.24 |
| YIPQSPDDSFWEVMFYLFLS | -0.43 ± 1.2 |
| YISDSLYGFDEVGRDWLRVA | -0.025 ± 0.56 |
| YISFHTTSYRFRLYRLL | 0.894 ± 0.17 |
| YIVYFESRN | 0.438 ± 0.16 |

| Substance | amyloid nucleation score |
| --- | --- |
| YIYDIGGLTHATMRCTCR | 0.635 ± 0.49 |
| YIYYSNFCPDRLIVFINAMT | inactive |
| YKKGYWSGDVAFVWWFTYMC | 0.959 ± 0.54 |
| YKLRFNILASMDNRMKLKWL | -0.899 ± 0.81 |
| YKVCRMCAKGCSDSFRPVRA | 0.555 ± 0.48 |
| YKVSKMNRRDTNGNLVNRRV | -0.211 ± 1.2 |
| YKYREGGKWPL | -1.3 ± 2.4 |
| YLCLAECSLSPYNTTLVGGV | -1.6 ± 0.81 |
| YLFAWSWEDGFYTGACRLLA | 0.006 ± 0.29 |
| YLGTFN | inactive |
| YLICWVIPGSNVGLMVGMTA | 0.093 ± 1.4 |
| YLIMGNVFNVAVVGGIGCVE | 0.345 ± 0.29 |
| YLNACGSSVRTKVRCSRVIL | -0.209 ± 0.91 |
| YLPTVIPVFI | 0.125 ± 0.98 |
| YLRDVRLYCVMRK | -0.129 ± 0.38 |
| YLVAVVIGSIPAPSRMYSVA | 0.904 ± 0.51 |
| YLVFMQEITLTKQLLWQSMR | -0.224 ± 0.39 |
| YLVRVMFWLLGRCEA | inactive |
| YLYAACVVWLMLLPNME | -0.671 ± 1.2 |
| YLYCSVSVYRFERFRRNHSR | 0.051 ± 0.3 |
| YMASDEVNI | -0.232 ± 0.26 |
| YMDGVPG | 0.042 ± 1.2 |
| YMFWRGLVFKWVV | 0.667 ± 0.56 |
| YMIMQLDACFECLTFQGQY | 5.9 ± 0.087 |
| YMISNMVKVVFSSTDRNVGN | 5.935 ± 0.051 |

| Substance | amyloid nucleation score |
| --- | --- |
| YMLWSVPRLWCRVWLPTVAC | 0.585 ± 0.64 |
| YMNLVLTDLAWSIWGG | 3.62 ± 0.1 |
| YMPRSQIGSTSHVNWREMAE | -0.311 ± 0.33 |
| YMVLVDLRTGRIHGSAGEKR | -0.174 ± 0.5 |
| YNCYNF | 0.97 ± 0.69 |
| YNQISLD | -0.38 ± 1.1 |
| YNVSQLVLLNVFTCK | 7.459 ± 0.044 |
| YNVWVWCERGQC | 4.5 ± 0.1 |
| YNYREWFSLIYFCIWDITWS | -1.01 ± 0.41 |
| YPAPPTNCLRQ | -0.449 ± 0.28 |
| YPCCKICDYIKS | -0.018 ± 0.23 |
| YPGRLRCSRVMSEFVLNSAL | -1.27 ± 0.68 |
| YQDFYMLSRLAKLGG | 0.36 ± 0.61 |
| YQQPEDCMFECTVVYSSKSR | -0.062 ± 0.26 |
| YQVYWSVSG | -0.021 ± 0.51 |
| YQYGAWNSANVSSNN | 1.19 ± 0.57 |
| YRAAQGHLASELYGLVTV | 0.36 ± 0.69 |
| YRKRYDWWTVEAVLASVFGS | 1.18 ± 0.57 |
| YRLVP | -0.186 ± 0.46 |
| YRRGKIAWGSTARHETVFIL | 0.336 ± 0.52 |
| YRSGSMLCNYPSRAVTVCWS | 1.16 ± 0.38 |
| YRWSLTLNLL | -0.651 ± 0.47 |
| YRYSSIF | -0.954 ± 1.4 |
| YSAALRHGQRHKWRSGRKIG | 0.674 ± 1.2 |
| YSADMFRADGLWFRGSRWG | 0.308 ± 0.57 |

| Substance | amyloid nucleation score |
| --- | --- |
| YSALVFRYGVISKGDLVTRR | 0.123 ± 0.36 |
| YSCIYKWHECNNVNDNMK | 0.149 ± 0.46 |
| YSEYPSLLGRSSGMIDNFKG | 0.597 ± 0.28 |
| YSFIKCGSMCKEYKPCPTKL | -0.11 ± 0.51 |
| YSGNSIFLNLRSSCAYCGGD | 6.35 ± 0.081 |
| YSGRVTLWIVPMLHARH | -0.114 ± 0.42 |
| YSMHKLSVFRRTYSVTISRT | 0.591 ± 0.55 |
| YSPFYYVDI | 1.61 ± 0.42 |
| YSSLLVTLAEAWCIRLSNRR | 0.665 ± 0.84 |
| YSSSRRDCRRPGTMYRPLPQ | -0.547 ± 0.55 |
| YSVGFTCRMVTLSASWYWLW | 0.136 ± 0.32 |
| YSVLNINLQFRSSLLGAFYP | 3.75 ± 0.063 |
| YSVLTFADLYMVSMS | inactive |
| YSVLVPIPLSCCISDVLYCT | 5.61 ± 0.064 |
| YSVMYMQSFFDKWLSTSAFR | -1.17 ± 1.4 |
| YSWLVYNHNSDPGGSVCWSC | 5.61 ± 0.065 |
| YSYFWVAWF | 0.329 ± 0.4 |
| YSYVRVIFYV | 0.145 ± 1 |
| YTDAIYHPIPRTGMYSWC | -0.194 ± 0.34 |
| YTEQACDSVP | -0.788 ± 0.89 |
| YTLMLCNVASVDSWI | 5.05 ± 0.063 |
| YTNGNIASTVLYLRPGYHLA | 1.06 ± 0.49 |
| YTNLAT | 0.251 ± 0.5 |
